Source: US20150147318A1 (ZOETIS SERVICES, published 2015)
Substitutions are numbered along the chain they refer to. Names may count otherwise.

What was measured:
[1] = target: T1, recombinant canine Nerve Growth Factor (Canis lupus familiaris NGF) (canine (Canis lupus familiaris), UniProt Q29074 110-229 (pig entry), limits assumed); assay: SPR, 1:1 binding fit, canine NGF
T1 construct: also called canine NGF; Dog NGF
T1 chain: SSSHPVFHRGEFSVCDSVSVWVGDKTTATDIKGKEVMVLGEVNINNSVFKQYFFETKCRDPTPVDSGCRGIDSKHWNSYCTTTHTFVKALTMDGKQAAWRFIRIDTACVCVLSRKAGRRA

[2] = target: T1, recombinant canine Nerve Growth Factor …; assay: SPR, Biacore T100, dog NGF; run 11/24; comment 'Agg?'
[3] = target: T1, recombinant canine Nerve Growth Factor …; assay: SPR, Biacore T100, dog NGF; run 11/29; comment 'Agg?'
[4] = target: T1, recombinant canine Nerve Growth Factor …; assay: SPR trkA inhibition: mAb pre-incubated with NGF, binding of NGF to trkA measured in RU
[5] = target: T1, recombinant canine Nerve Growth Factor …; assay: cell-based or functional assay
[6] = target: T1, recombinant canine Nerve Growth Factor …; assay: SPR, Biacore T100, dog NGF; run 11/22
[7] = target: T1, recombinant canine Nerve Growth Factor …; assay: SPR, Biacore T100, dog NGF; run 11/29
[8] = target: T1, recombinant canine Nerve Growth Factor …; assay: SPR, Biacore T100, dog NGF; run 11/24

B1: LTM135 (HC G103A, LC H32N) (antibody, V domains shown)
VH: EVQLVESGGDLARPGGSLKLSCVVSGFSLIGYDINWVRQAPGKGLQWVTMIWGDGTTDYNSALKSRFTVSRDNAMNTVYLQMNSLRVEDTAVYYCARGGYYYATSYYFDYWGQGTLVTVSS
VL: DIVMTQTPLSLSVSPGETASISCRASQDISNNLNWFRQKPGQSPQRLIYYISRFHSGVPDRFSGSGSGTDFTLRISRVEADDTGVYYCQQSKTLPYTFGAGTKLEIK
notes: Point mutant of canE3M65 as full IgG
Kd [1]: 1.69 nM | koff [1]: 4.23e-05 s⁻¹ | kon [1]: 25100 M⁻¹ s⁻¹ | Kd [2]: 0.138 nM | Kd [3]: 0.0061 nM

B2: LTM construct 110 (HC Y101W, G103A; LC K92D) (antibody, V domains shown)
VH: B1 VH with Y101W
VL: B1 VL with N32H, K92D
notes: as for B1
Kd [2]: 0.00326 nM | Kd [3]: 0.942 nM

B3: SSM-22 (LC SSMwtLCR53S, HC SSMwtHCD54T, G31E) (antibody, V domains shown)
VH: B1 VH with G31E, D54T, A103G
VL: B1 VL with N32H, R53S
Kd [1]: 249 nM | koff [1]: 0.000296 s⁻¹ | kon [1]: 1190 M⁻¹ s⁻¹

B4: SSM66 (CAN-SSM66-VH, CAN-SSME3M-VL) (antibody, V domains shown)
VH: B1 VH with G31E, D54T, Y101W
VL: B1 VL with D28S, R53S, K92H
Ki [4]: 4.5 nM | EC50, pERK inhibition, PC-12 (Rat Neuronal), pre-incubation 1 hour, 2/23/11 (SSM66) [5]: 1.45 nM | EC50, pERK inhibition, PC-12 (Rat Neuronal), pre-incubation 1 hour, 3/26/11 (SSM66) [5]: 0.71 nM | EC50, pERK inhibition, huTrkA (CHO), pre-incubation 1 hour, 3/26/11 (SSM66) [5]: 0.76 nM | EC50, pERK inhibition, huTrkA (CHO), pre-incubation 1 hour, 3/31/11 (SSM66) [5]: 0.94 nM | EC50, pERK inhibition, huTrkA (CHO), pre-incubation 6 hour, 3/31/11 (SSM66) [5]: 0.69 nM | Fold Potency Difference versus RN911, pERK inhibition, PC-12 (Rat Neuronal), pre-incubation 1 hour, 2/23/11 (SSM66) [5]: 2.2 fold | Fold Potency Difference versus RN911, pERK inhibition, PC-12 (Rat Neuronal), pre-incubation 1 hour, 3/26/11 (SSM66) [5]: 1.5 fold | Fold Potency Difference versus RN911, pERK inhibition, huTrkA (CHO), pre-incubation 1 hour, 3/26/11 (SSM66) [5]: 1.6 fold | Fold Potency Difference versus RN911, pERK inhibition, huTrkA (CHO), pre-incubation 1 hour, 3/31/11 (SSM66) [5]: 1.5 fold | Fold Potency Difference versus RN911, pERK inhibition, huTrkA (CHO), pre-incubation 6 hour, 3/31/11 (SSM66) [5]: 1.2 fold

B5: SSM-2 (LC E3M, HC SSMwtHCG31Q) (antibody, V domains shown)
VH: B1 VH with G31Q, A103G
VL: B1 VL with N32H
notes: IgG expressed in HEK293; constant regions are not restated
Kd [1]: 14.2 nM | koff [1]: 0.000114 s⁻¹ | kon [1]: 8080 M⁻¹ s⁻¹

B6: SSM-36 (LC SSM135LCR53S, HC SSM135HCG31E) (antibody, V domains shown)
VH: B1 VH with G31E
VL: B1 VL with R53S
notes: Both chains are built on the LTM135 template (HC G103A, LC H32N)
Kd [1]: 40.2 nM | koff [1]: 0.00033 s⁻¹ | kon [1]: 8200 M⁻¹ s⁻¹

B7: LTM construct 32 (HC Y100W, LC D28S) (antibody, V domains shown)
VH: B1 VH with Y100W, A103G
VL: B1 VL with D28S, N32H
notes: Point mutant of canE3M65, converted into full IgG and expressed in HEK293; The canine constant regions are not restated
Kd [6]: 2.25 nM

B8: LTM construct 35 (HC Y100W, LC D28S, H32N, K92H) (antibody, V domains shown)
VH: B1 VH with Y100W, A103G
VL: B1 VL with D28S, K92H
notes: Point mutant of canE3M65 as full IgG; Constant regions are not restated
Kd [6]: 0.237 nM | Kd [7]: 0.81 nM

B9: LTM construct 36 (HC Y100W, LC K92D) (antibody, V domains shown)
VH: B1 VH with Y100W, A103G
VL: B1 VL with N32H, K92D
notes: as for B8
Kd [6]: 5.5 nM

B10: SSM-17 (LC SSMwtLCR53S, HC SSMwtHCD54T) (antibody, V domains shown)
VH: B1 VH with D54T, A103G
VL: B1 VL with N32H, R53S
Kd [1]: 69.1 nM | koff [1]: 0.0014 s⁻¹ | kon [1]: 20300 M⁻¹ s⁻¹

B11: LTM construct 133 (HC G103A, LC K92H) (antibody, V domains shown)
VH: B1 VH
VL: B1 VL with N32H, K92H
notes: as for B1
Kd [2]: 0.00133 nM | Kd [3]: 0.011 nM

B12: LTM construct 37 (HC Y100W, LC *D28S, NH31HN, S91Y) (antibody, V domains shown)
VH: B1 VH with Y100W, A103G
VL: B1 VL with D28S, N31H, S91Y
notes: as for B1
Kd [6]: 1.91 nM

B13: LTM construct 39 (HC Y100W, LC D28S, S91Y) (antibody, V domains shown)
VH: B1 VH with Y100W, A103G
VL: B1 VL with D28S, N32H, S91Y
notes: as for B8
binding result [6]: no binding

B14: LTM construct 34 (HC Y100W, LC D28S, H32N) (antibody, V domains shown)
VH: B1 VH with Y100W, A103G
VL: B1 VL with D28S
notes: as for B8
Kd [6]: 0.639 nM | Kd [7]: 0.885 nM

B15: SSM-3 (LC E3M, HC SSMwtHCG31E) (antibody, V domains shown)
VH: B1 VH with G31E, A103G
VL: B1 VL with N32H
Kd [1]: 41.4 nM | koff [1]: 0.000167 s⁻¹ | kon [1]: 4040 M⁻¹ s⁻¹

B16: SSM-8 (LC E3M, HC SSMwtHCD54T, L63I) (antibody, V domains shown)
VH: B1 VH with D54T, L63I, A103G
VL: B1 VL with N32H
Kd [1]: 41.8 nM | koff [1]: 0.000173 s⁻¹ | kon [1]: 4130 M⁻¹ s⁻¹

B17: LTM construct 112 (HC Y101W, G103A; LC D28S, NH31HN, K92D) (antibody, V domains shown)
VH: B1 VH with Y101W
VL: B1 VL with D28S, N31H, K92D
notes: as for B1
Kd [2]: 0.00165 nM | Kd [3]: 0.0152 nM

B18: SSM-13 (LC SSMwtLCR53S, HC SSMwtHCG31Q) (antibody, V domains shown)
VH: B1 VH with G31Q, A103G
VL: B1 VL with N32H, R53S
Kd [1]: 311 nM | koff [1]: 0.00241 s⁻¹ | kon [1]: 7750 M⁻¹ s⁻¹

B19: SSM57 (CAN-SSM57-VH, CAN-SSME3M-VL) (antibody, V domains shown)
VH: B1 VH with G31Q, Y101W
VL: B1 VL with D28S, R53S, K92H
notes: also called PF 06442590; PF-06442591
Ki [4]: 4.2 nM | EC50, pERK inhibition, PC-12 (Rat Neuronal), pre-incubation 1 hour, 2/23/11 (SSM57) [5]: 1.08 nM | EC50, pERK inhibition, PC-12 (Rat Neuronal), pre-incubation 1 hour, 3/26/11 (SSM57) [5]: 0.65 nM | EC50, pERK inhibition, huTrkA (CHO), pre-incubation 1 hour, 3/26/11 (SSM57) [5]: 0.85 nM | EC50, pERK inhibition, huTrkA (CHO), pre-incubation 1 hour, 3/31/11 (SSM57) [5]: 0.86 nM | EC50, pERK inhibition, huTrkA (CHO), pre-incubation 6 hour, 3/31/11 (SSM57) [5]: 0.73 nM | Fold Potency Difference versus RN911, pERK inhibition, PC-12 (Rat Neuronal), pre-incubation 1 hour, 2/23/11 (SSM57) [5]: 1.6 fold | Fold Potency Difference versus RN911, pERK inhibition, PC-12 (Rat Neuronal), pre-incubation 1 hour, 3/26/11 (SSM57) [5]: 1.4 fold | Fold Potency Difference versus RN911, pERK inhibition, huTrkA (CHO), pre-incubation 1 hour, 3/26/11 (SSM57) [5]: 1.8 fold | Fold Potency Difference versus RN911, pERK inhibition, huTrkA (CHO), pre-incubation 1 hour, 3/31/11 (SSM57) [5]: 1.4 fold | Fold Potency Difference versus RN911, pERK inhibition, huTrkA (CHO), pre-incubation 6 hour, 3/31/11 (SSM57) [5]: 1.3 fold

B20: LTM construct 33 (HC Y100W, LC *D28S, NH31HN) (antibody, V domains shown)
VH: B1 VH with Y100W, A103G
VL: B1 VL with D28S, N31H
notes: as for B1
binding result [6]: no binding

B21: LTM construct 38 (HC Y100W, LC D28S, NH31HN, K92D) (antibody, V domains shown)
VH: B1 VH with Y100W, A103G
VL: B1 VL with D28S, N31H, K92D
notes: as for B8
Kd [6]: 2.15 nM

B22: LTM construct 111 (HC Y101W, G103A; LC *D28S, NH31HN, S91Y) (antibody, V domains shown)
VH: B1 VH with Y101W
VL: B1 VL with D28S, N31H, S91Y
notes: The '*' is not explained
Kd [2]: 0.146 nM | Kd [3]: 0.0288 nM

B23: SSM-14 (LC SSMwtLCR53S, HC SSMwtHCG31E) (antibody, V domains shown)
VH: B1 VH with G31E, A103G
VL: B1 VL with N32H, R53S
Kd [1]: 23.6 nM | koff [1]: 0.00812 s⁻¹ | kon [1]: 344000 M⁻¹ s⁻¹

B24: SSM58 (CAN-SSM58-VH, CAN-SSME3M-VL) (antibody, V domains shown)
VH: B1 VH with G31E, Y101W
VL: B1 VL with D28S, R53S, K92H
Ki [4]: 4.2 nM | EC50, pERK inhibition, PC-12 (Rat Neuronal), pre-incubation 1 hour, 2/23/11 (SSM58) [5]: 1.05 nM | EC50, pERK inhibition, PC-12 (Rat Neuronal), pre-incubation 1 hour, 3/26/11 (SSM58) [5]: 0.65 nM | EC50, pERK inhibition, huTrkA (CHO), pre-incubation 1 hour, 3/26/11 (SSM58) [5]: 0.79 nM | EC50, pERK inhibition, huTrkA (CHO), pre-incubation 1 hour, 3/31/11 (SSM58) [5]: 0.86 nM | EC50, pERK inhibition, huTrkA (CHO), pre-incubation 6 hour, 3/31/11 (SSM58) [5]: 0.72 nM | Fold Potency Difference versus RN911, pERK inhibition, PC-12 (Rat Neuronal), pre-incubation 1 hour, 2/23/11 (SSM58) [5]: 1.6 fold | Fold Potency Difference versus RN911, pERK inhibition, PC-12 (Rat Neuronal), pre-incubation 1 hour, 3/26/11 (SSM58) [5]: 1.4 fold | Fold Potency Difference versus RN911, pERK inhibition, huTrkA (CHO), pre-incubation 1 hour, 3/26/11 (SSM58) [5]: 1.7 fold | Fold Potency Difference versus RN911, pERK inhibition, huTrkA (CHO), pre-incubation 1 hour, 3/31/11 (SSM58) [5]: 1.4 fold | Fold Potency Difference versus RN911, pERK inhibition, huTrkA (CHO), pre-incubation 6 hour, 3/31/11 (SSM58) [5]: 1.3 fold

B25: SSM-19 (LC SSMwtLCR53S, HC SSMwtHCD54T, L63I) (antibody, V domains shown)
VH: B1 VH with D54T, L63I, A103G
VL: B1 VL with N32H, R53S
Kd [1]: 37.4 nM | koff [1]: 0.00164 s⁻¹ | kon [1]: 43800 M⁻¹ s⁻¹

B26: LTM construct 44 (HC Y100W, LC S91E) (antibody, V domains shown)
VH: B1 VH with Y100W, A103G
VL: B1 VL with N32H, S91E
notes: as for B8
binding result [8]: no binding

B27: SSM-34 (LC SSM135LCR53S, HC135 (G103A)) (antibody, V domains shown)
VH: B1 VH
VL: B1 VL with R53S
notes: The light chain is the LTM135 template (E3M H32N) plus R53S
Kd [1]: 3.08 nM | koff [1]: 0.000192 s⁻¹ | kon [1]: 62400 M⁻¹ s⁻¹

B28: LTM construct 43 (HC Y100W, LC K92H) (antibody, V domains shown)
VH: B1 VH with Y100W, A103G
VL: B1 VL with N32H, K92H
notes: as for B8
Kd [8]: 5.67 nM
